Measured values published in the nanobody polyreactivity screen of Harvey et al. (2022).

Assay: yeast display, Sf9 membrane polyspecificity reagent, FACS + sequencing; frameworks hold sequencing errors
Method in brief: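 Using colony PCR, genes from sorted yeast display clones were amplified, then sequenced on MiSeq at 2 × 250 and filtered by CDR length. The clones had been stained with 10% biotinylated, detergent-solubilized Sf9 membrane reagent for 1 hour at 4 °C and sorted by FACS into low and high (top ~1%) gates on anti-HA and streptavidin fluorescence. Polyreactivity labels come from the gate of origin.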

Row | Sequence | polyreactivity (PSR sort gate)
1 | QVQLVESGGGLVQAGGSLRLSCAASARTFSYYAMGLYRQEPGKERELVAAIRRSSGTTYYADSVKGRFTISSDNAKYSVYLQMNSLKPEDTADYYCNARSRRASIKRDYWGQGTQVSVSS | high polyreactivity
2 | QVQLVESGGGLVQAGGSLRLSCAASARTFTRYAIGWYRQAPGKERELVAAISFSVGSTYYADSVKGRFTISRDNAKYSVYLQMNRLKPEDTAVYYCARPSGDAWEGPRMDYWGQCTQVTVSS | low polyreactivity
3 | QVQLVESGGGLVQAGGSLRLSCAASASISYYYAMGWYRQETGKERELVAAITRTGTTNYADSVKGRFTISRDNAKNTVYLQMNSLKPEDTAVYYCAKRSTGRLQSYNYRGQGTQVTVSS | low polyreactivity
4 | QVQLVESGGGLVQAGGSLRLSCAASASTFGAYAMGWYRQAPGKERELVAAITESGDNTYYADSVKGRFTISRDNAKNTVYLQMNSLKPEDTAVFYCAADDGYSTYEYWGQGTQVTVSS | low polyreactivity
5 | QVQLVESGGGLVQAGGSLRLSCAASASTFYTKVMGWYRPAPGKERELVAAISSSGSRTYYADSVKGRFTISRDNAKNTVYLQMNSLKPEDTAVYYCNAYYRLEPDDGDYDYWGQGTQVTVSS | high polyreactivity
6 | QVQLVESGGGLVQAGGSLRLSCAASASTVSRYAMGWYRQAPGKEREVVAGISWSGGNTYSADSVKGRFTISRDNAKNTVYLQMNSLKPEDTAVYYCAADFLDYWGVYGWAEYEYWGQGTQVTVSS | low polyreactivity
7 | QVQLVESGGGLVQAGGSLRLSCAASAYIYRGYPLGRYRQAPGKERELVAAISNIGGTTYYADSVKGRFTISRDNAKNTVYLQMISLKREDTEVYYCAAEHSYWGWAYGYWGQGTQVTLSS | high polyreactivity
8 | QVQLVESGGGLVQAGGSLRLSCAASDLQILCYGWYRQPPGKERELFASITRGDGSTYYADSVKGRFTISRDNAKNTVFIQMNSLKPEDTAVYYCADYNDWRDELYDYWGQGTQVTVSS | low polyreactivity
9 | QVQLVESGGGLVQAGGSLRLSCAASGAIFAYNAMGWYRQAPGKEREFVAAISQSGGRTYYADSVKGRFTISRDYEKNTVYLQMNTLKPEDTAVYYCATDGIRLTSHRDYDYWGQGTQVTVSS | low polyreactivity
10 | QVQLVESGGGLVQAGGSLRLSCAASGAIFESNAMGWYRQAPGKEREFVAAIDQNDGSSNYADSVKGRFTISRDNAKNTVYLQMNSLKPEDSAVYYCAAEVPGYWYLDYEYWGHGTQVTVSS | low polyreactivity
11 | QVQLVESGGGLVQAGGSLRLSCAASGAIFRGYAMGWYRQAPGKERELVATITRRCGSTYYADSVKGRFTISRDNAKNTVYLQMNSLKPEDTAVYYCNARLTFLSSWLGKLQWGYDYWGQGTQVTVSS | low polyreactivity
12 | QVQLVESGGGLVQAGGSLRLSCAASGAIFVFYVMGWYRQAPGKERELVAAISNSGSSTYYADSVKGRFTISRDNAKNTVYLQMNSLKPEDTAVYYCAAEYKIPVGFDYWGQGTQVTVSS | low polyreactivity
13 | QVQLVESGGGLVQAGGSLRLSCAASGCTFDYNAMGWYRQAPGKEREFVAAIDYSSGSTYYADSVKGRFTISRDNAKNTVYLQMNCLKPEDTAVYYCNAPIAVGSGLFDYWGQGTQVTVSS | high polyreactivity
14 | QVQLVESGGGLVQAGGSLRLSCAASGDIFSRYMGWYRQAPGKERELVAAITRGGVSTYYADSVKGRFTISRDNAKNTVYLQMNSLKPEDTAVYYCATGRPVYYVASYDYDYWGQGTQVTVSS | low polyreactivity
15 | QVQLVESGGGLVQAGGSLRLSCAASGFIDAYTMGWYRPAPGKERELVAAITWSGGRTSYADSVKGRFTISRDTAKNTVYLQMNSLKPEDTAGYYCAKDVTPYSPDDDYWGQGTQVTVSS | low polyreactivity
16 | QVQLVESGGGLVQAGGSLRLSCAASGFIDAYTMGWYRQAPGKERELVAAITWSGGRTYYADSVKGRFTISRDNAKNTVYLQMNSLKPEDTAVYYCAATVSRGFYSWWYDYWGQGTQVTVSS | low polyreactivity
17 | QVQLVESGGGLVQAGGSLRLSCAASGFIFADNAMGWYRQAPGKERELVAAINLGGGDTYYADSVKGRFTISRDNAKNTVYLQMNSLKPEDTAVYYCATVWFSEGYDYNHWGQGTQVTVSS | low polyreactivity
18 | QVQLVESGGGLVQAGGSLRLSCAASGFIFADNTMGWYRQAPGKERELVGAISRRGGSTYYADSVKGRFTISRDNSKNTVYLQMNSLKPEDTAVYYCAARPFVKHDYWGQGTLVTVSS | high polyreactivity
19 | QVQLVESGGGLVQAGGSLRLSCAASGFIFADYAMGWYRQAPGKERELVAAITRGGITYYADSVKGRFTISRDNAKNTVYLQMNSLKPEDTAVYYCAVDPSPRSYYNYYWGQGTQVTVSS | high polyreactivity
20 | QVQLVESGGGLVQAGGSLRLSCAASGFIFADYAMGWYRQAPGKERELVAAITRSGGRTYYADSVKGRFTISRDNAKNTVYLQMNSLKPEDTAVYYCAAVGPGRRRDYWGQGTQVTVSS | high polyreactivity
21 | QVQLVESGGGLVQAGGSLRLSCAASGFIFADYAMGWYRQAPGKERELVAAITSSGTRTYYADSVKGRFTISRDNAKNTVYLQMNSLKPEDTAVYYCAVRGVYYYHCAFDYWGQGTQVTVSS | high polyreactivity

Row | Sequence | polyreactivity (PSR sort gate)
22 | QVQLVESGGGLVQAGGSLRLSCAASGFIFADYTMGWYRQAPGKERELVAAITWSGDSTYYADSVKGRFTISRDNAKNTVYLQMNSLKPEDTAVYYCNAVNDWYYAYYGVTSFRSYDYWGQGTQVTVSS | low polyreactivity
23 | QVQLVESGGGLVQAGGSLRLSCAASGFIFAEYAMGWYRQAPGKERELVAAITSGGSTSYADSVKGRFTISRDNAKNTVYLQMNSLKPEDTAVYYCAATWYYHYNDWKHWYEYGYWGQGTQVTVSS | low polyreactivity
24 | QVQLVESGGGLVQAGGSLRLSCAASGFIFAGYAMGWYRQAPGKERELVAAISSGGGSTYYADSVKGRFTISRDNAKNTVYLQMNSLKPEDTAVYYCAARRLYPPGYYYWGQGTQVTVSS | high polyreactivity
25 | QVQLVESGGGLVQAGGSLRLSCAASGFIFAHNAMGWYRQAPGKARELVAAITSSGGSTYYADSVKGRFTISRDNAKNTVYLQKNSLKPEDTAVYYCNAYTYARRGYDYWGQGTQVTVSS | high polyreactivity
26 | QVQLVESGGGLVQAGGSLRLSCAASGFIFAHNAMGWYRQAPGKERELVADITRDGNTYYADSVKGRFTISRDNAKNTVYLQMNSLKTEDTAVYYCAADVSTTWYWWGQFEFEYWGQGTQVTVSS | high polyreactivity
27 | QVQLVESGGGLVQAGGSLRLSCAASGFIFAKYVMGWYRQAPGKERELVAAISRSGGSTYYADSVKGRFTISRDNAKNTVYLQLNSLKPEDTAVYYCAADQTTTGGMDYWGQGTQITVSS | high polyreactivity
28 | QVQLVESGGGLVQAGGSLRLSCAASGFIFAKYVMGWYRQAPGKERELVAAISRSGGSTYYADSVKGRFTISRDNAKNTVYLQMNSLKPDDTAVYYFAADQTTTGGMDFWGQGTQVTVSS | high polyreactivity
29 | QVQLVESGGGLVQAGGSLRLSCAASGFIFANYAMGWDRQAPGKERELVAAISTSGSSTYYADSVKGRFTISRDNAKNTVYLQMNSLKPKDTAVYYCRTSGKHRLYISSYRFEYWGQGTQVTVSS | high polyreactivity
30 | QVQLVESGGGLVQAGGSLRLSCAASGFIFARYAMGWYRQAPGKERELVAAISVSGGSTYYADSVKGRFTISRDNAKNTVYLQMNSLKPEDTAVYYCAATRPFVSGWIMDYWGQGTQVTVSS | high polyreactivity
31 | QVQLVESGGGLVQAGGSLRLSCAASGFIFARYGMGWYRQAPGKERELVAAIRTSGGTYYADSVKGRFTISRDNAKNTVYLQMNSLKPEDTAVYYCNVYRRVIWPKNYDYWGQGTQVTVSS | high polyreactivity
32 | QVQLVESGGGLVQAGGSLRLSCAASGFIFASNAMGWYRQAPGKERELVAAITRSGGITYYADSVKGRFTISRDNAKNTVYLQMNSLKPEDTAVYYCNKGRRTKNSAYYDYWGQGTQVTVSS | high polyreactivity
33 | QVQLVESGGGLVQAGGSLRLSCAASGFIFASYTMGWYRQAPGKERELVASISRDGGRTSYADSVKGRFTISRDNAKNTVYLQMNSLKPEDTAVYYCAARYWLRSEYWGQGTQVTVSS | high polyreactivity
34 | QVQLVESGGGLVQAGGSLRLSCAASGFIFATYAMGWYRQAPGKERELVAAINRGGSTYYADSVKGRFTISRDNAKNTVYLQMNSLKPEDTAVYYCAAAKRYPTSTWYGYWGQGTQVTVSS | high polyreactivity
35 | QVQLVESGGGLVQAGGSLRLSCAASGFIFATYGMGWYRQAPGKERELVATITSGGRTYYADSVKGRFTISRDNAKNTVYLQMNSLKPDDTAVYYCARASRRYWSMDYWGQGTQVSVSS | high polyreactivity
36 | QVQLVESGGGLVQAGGSLRLSCAASGFIFAVNAMGWYRQAPGKERELVAAISGRGGRTYYADSVKGRFTISRDYAKNTVYLQMNSLKPEDTAVYYCAARSYQYSYSFYWGQGTQVTVSS | high polyreactivity
37 | QVQLVESGGGLVQAGGSLRLSCAASGFIFAVNAMGWYRQAPGKERELVATIRATTTSTYADSVKGRFTISRDNAKNTVYLQMNSLKPEDTAVYYCATDVRTISFEYDYWGQGTQVTVSS | low polyreactivity
38 | QVQLVESGGGLVQAGGSLRLSCAASGFIFAWYAMGWYRQAPGKERELVAAISYSGGSTYYADSVKGRFTISRDNAKNTVYLEMNSLKPEDTAVYYCNKVSRGGSYGHAFDYWGQGTQVTVSS | high polyreactivity
39 | QVQLVESGGGLVQAGGSLRLSCAASGFIFAWYAMGWYRQAPGKERELVASISVSDGSTYYADSVKGRFTISRDNAKNTVYLQMNSLKPEDTAVYYCAAEVSSDYYNSDYYWGQGTQVTVSS | low polyreactivity
40 | QVQLVESGGGLVQAGGSLRLSCAASGFIFAWYAMGWYRQAPGKEREMVAAITSGGRTYYADSVKGRFTISRDNAKNTVYLQMNSLKPEDTAVYYCATDAVASHRPYKYGPQSGSWGQGTQVTVSS | high polyreactivity
41 | QVQLVESGGGLVQAGGSLRLSCAASGFIFAYNAMGWYRQAPGKERELVAAITGSGTRTYYADSVKGRFTISRDKAKNTVYLQMYSLKPEDTAVYYCAARFPRDTYYYWGQGTQVTVSS | high polyreactivity
